Each substance was assayed against HA-hFc probe: H1N1 A/California/04/2009 HA ectodomain fused to human IgG1 Fc (assay: flow cytometry on cells). Settings: parent: est. 1.0; read off a plot.

Substance	ratio to parent
Flag-tagged fTfR-5J8 receptor, WT (Flag+) (from UniProt Q9MYZ3) R97A; P100aA; I93A	0.42
Flag-tagged fTfR-5J8 receptor, WT (Flag+) (from UniProt Q9MYZ3) N32A	0.94
Flag-tagged fTfR-5J8 receptor, WT (Flag+) (from UniProt Q9MYZ3) I93A	0.98
Flag-tagged fTfR-5J8 receptor, WT (Flag+) (from UniProt Q9MYZ3) I93D	0.97
Flag-tagged fTfR-5J8 receptor, WT (Flag+) (from UniProt Q9MYZ3) R97H	0.84
Flag-tagged fTfR-5J8 receptor, WT (Flag+) (from UniProt Q9MYZ3) D100bL	0.28
